Source: FireProtDB (doi:10.1021/acs.biochem.7b00571)

B1: Salicylic acid-binding protein 2, Q6RYA0 (parent)
chain: MKEGKHFVLVHGACHGGWSWYKLKPLLEAAGHKVTALDLAASGTDLRKIEELRTLYDYTLPLMELMESLSADEKVILVGHSLGGMNLGLAMEKYPQKIYAAVFLAAFMPDSVHNSSFVLEQYNERTPAENWLDTQFLPYGSPEEPLTSMFFGPKFLAHKLYQLCSPEDLALASSLVRPSSLFMEDLSKAKYFTDERFGSVKRVYIVCTEDKGIPEEFQRWQIDNIGVTEAIEIKGADHMAMLCEPQKLCASLLEIAHKYN

Variants of: B1
Settings: Nicotiana tabacum; pH 7.2; 4 °C; Urea; Fluorescence; BES; reversible: yes; structure 1Y7I; whole UniProt chain shown

Question: Which “denaturant midpoint (higher = more stable)” value (“denaturant midpoint” for short) does the source give for MKEGKHFVLVHGACHGAWSWYKLKPLLEAAGHKVTALDLAASGTDLRKIEELRTLYDYTLPLMELMESLSADEKVILVGHSLGGMNLGLAMEKYPQKIYAAVFLAAFMPDSVHNSSFVLEQYNERTPAENWLDTQFLPYGSPEEPLTSMFFGPKFLAHKLYQLCSPEDLALASSLVRPSSLFMEDLSKAKYFTDERFGSVKRVYIVCTEDKGIPEEFQRWQIDNIGVTEAIEIKGADHMAMLCEPQKLCASLLEIAHKYN [G17A] here?
Answer: 2.1 M

Question: With MKEGKHFVLVHGACHGGWSWYKLKPLLEAAGHKVTALDLAASGTDPRKIEELRTLYDYTLPLMELMESLSADEKVILVGHSLGGMNLGLAMEKYPQKIYAAVFLAAFMPDSVHNSSFVLEQYNERTPAENWLDTQFLPYGSPEEPLTSMFFGPKFLAHKLYQLCSPEDLALASSLVRPSSLFMEDLSKAKYFTDERFGSVKRVYIVCTEDKGIPEEFQRWQIDNIGVTEAIEIKGADHMAMLCEPQKLCASLLEIAHKYN [L46P] as the variant, how does the “denaturant midpoint” value read?
Answer: 2.4 M

Question: Which “denaturant midpoint” value does the source give for MKEGKHFVLVHGACHGGWSWYKLKPLLEAAGHKVTALDLAASGTDLRKIEELRTLYDYTRPLMELMESLSADEKVILVGHSLGGMNLGLAMEKYPQKIYAAVFLAAFMPDSVHNSSFVLEQYNERTPAENWLDTQFLPYGSPEEPLTSMFFGPKFLAHKLYQLCSPEDLALASSLVRPSSLFMEDLSKAKYFTDERFGSVKRVYIVCTEDKGIPEEFQRWQIDNIGVTEAIEIKGADHMAMLCEPQKLCASLLEIAHKYN [L60R] here?
Answer: 2.7 M

Question: Which “denaturant midpoint” value does the source give for MKEGKHFVLVHGACHGGWSWYKLKPLLEAAGHKVTALDLAASGTDLRKIEELRTLYDYTLPLMEFMESLSADEKVILVGHSLGGMNLGLAMEKYPQKIYAAVFLAAFMPDSVHNSSFVLEQYNERTPAENWLDTQFLPYGSPEEPLTSMFFGPKFLAHKLYQLCSPEDLALASSLVRPSSLFMEDLSKAKYFTDERFGSVKRVYIVCTEDKGIPEEFQRWQIDNIGVTEAIEIKGADHMAMLCEPQKLCASLLEIAHKYN [L65F] here?
Answer: 3.8 M

Question: For MKEGKHFVLVHGACHGGWSWYKLKPLLEAAGHKVTALDLAASGTDLRKIEELRTLYDYTLPLMELMESLPADEKVILVGHSLGGMNLGLAMEKYPQKIYAAVFLAAFMPDSVHNSSFVLEQYNERTPAENWLDTQFLPYGSPEEPLTSMFFGPKFLAHKLYQLCSPEDLALASSLVRPSSLFMEDLSKAKYFTDERFGSVKRVYIVCTEDKGIPEEFQRWQIDNIGVTEAIEIKGADHMAMLCEPQKLCASLLEIAHKYN [S70P], which “denaturant midpoint” value is on record?
Answer: 2.4 M

Question: With MKEGKHFVLVHGACHGGWSWYKLKPLLEAAGHKVTALDLAASGTDLRKIEELRTLYDYTLPLMELMESLSPDEKVILVGHSLGGMNLGLAMEKYPQKIYAAVFLAAFMPDSVHNSSFVLEQYNERTPAENWLDTQFLPYGSPEEPLTSMFFGPKFLAHKLYQLCSPEDLALASSLVRPSSLFMEDLSKAKYFTDERFGSVKRVYIVCTEDKGIPEEFQRWQIDNIGVTEAIEIKGADHMAMLCEPQKLCASLLEIAHKYN [A71P] as the variant, how does the “denaturant midpoint” value read?
Answer: 1.9 M

Question: For MKEGKHFVLVHGACHGGWSWYKLKPLLEAAGHKVTALDLAASGTDLRKIEELRTLYDYTLPLMELMESLSADEKVILVGHSLGGMNLGLAMEKFPQKIYAAVFLAAFMPDSVHNSSFVLEQYNERTPAENWLDTQFLPYGSPEEPLTSMFFGPKFLAHKLYQLCSPEDLALASSLVRPSSLFMEDLSKAKYFTDERFGSVKRVYIVCTEDKGIPEEFQRWQIDNIGVTEAIEIKGADHMAMLCEPQKLCASLLEIAHKYN [Y94F], which “denaturant midpoint” value is on record?
Answer: 2.2 M

Question: With MKEGKHFVLVHGACHGGWSWYKLKPLLEAAGHKVTALDLAASGTDLRKIEELRTLYDYTLPLMELMESLSADEKVILVGHSLGGMNLGLAMEKYPQKIYAAVFLAAFMPDGVHNSSFVLEQYNERTPAENWLDTQFLPYGSPEEPLTSMFFGPKFLAHKLYQLCSPEDLALASSLVRPSSLFMEDLSKAKYFTDERFGSVKRVYIVCTEDKGIPEEFQRWQIDNIGVTEAIEIKGADHMAMLCEPQKLCASLLEIAHKYN [S111G] as the variant, how does the “denaturant midpoint” value read?
Answer: 1.7 M

Question: For MKEGKHFVLVHGACHGGWSWYKLKPLLEAAGHKVTALDLAASGTDLRKIEELRTLYDYTLPLMELMESLSADEKVILVGHSLGGMNLGLAMEKYPQKIYAAVFLAAFMPDPVHNSSFVLEQYNERTPAENWLDTQFLPYGSPEEPLTSMFFGPKFLAHKLYQLCSPEDLALASSLVRPSSLFMEDLSKAKYFTDERFGSVKRVYIVCTEDKGIPEEFQRWQIDNIGVTEAIEIKGADHMAMLCEPQKLCASLLEIAHKYN [S111P], which “denaturant midpoint” value is on record?
Answer: 1.7 M

Question: Which “denaturant midpoint” value does the source give for MKEGKHFVLVHGACHGGWSWYKLKPLLEAAGHKVTALDLAASGTDLRKIEELRTLYDYTLPLMELMESLSADEKVILVGHSLGGMNLGLAMEKYPQKIYAAVFLAAFMPDSVHGSSFVLEQYNERTPAENWLDTQFLPYGSPEEPLTSMFFGPKFLAHKLYQLCSPEDLALASSLVRPSSLFMEDLSKAKYFTDERFGSVKRVYIVCTEDKGIPEEFQRWQIDNIGVTEAIEIKGADHMAMLCEPQKLCASLLEIAHKYN [N114G] here?
Answer: 2.5 M

Question: Which “denaturant midpoint” value does the source give for MKEGKHFVLVHGACHGGWSWYKLKPLLEAAGHKVTALDLAASGTDLRKIEELRTLYDYTLPLMELMESLSADEKVILVGHSLGGMNLGLAMEKYPQKIYAAVFLAAFMPDSVHLSSFVLEQYNERTPAENWLDTQFLPYGSPEEPLTSMFFGPKFLAHKLYQLCSPEDLALASSLVRPSSLFMEDLSKAKYFTDERFGSVKRVYIVCTEDKGIPEEFQRWQIDNIGVTEAIEIKGADHMAMLCEPQKLCASLLEIAHKYN [N114L] here?
Answer: 2 M

Question: Which “denaturant midpoint” value does the source give for MKEGKHFVLVHGACHGGWSWYKLKPLLEAAGHKVTALDLAASGTDLRKIEELRTLYDYTLPLMELMESLSADEKVILVGHSLGGMNLGLAMEKYPQKIYAAVFLAAFMPDSVHNASFVLEQYNERTPAENWLDTQFLPYGSPEEPLTSMFFGPKFLAHKLYQLCSPEDLALASSLVRPSSLFMEDLSKAKYFTDERFGSVKRVYIVCTEDKGIPEEFQRWQIDNIGVTEAIEIKGADHMAMLCEPQKLCASLLEIAHKYN [S115A] here?
Answer: 2.4 M

Question: With MKEGKHFVLVHGACHGGWSWYKLKPLLEAAGHKVTALDLAASGTDLRKIEELRTLYDYTLPLMELMESLSADEKVILVGHSLGGMNLGLAMEKYPQKIYAAVFLAAFMPDSVHNPSFVLEQYNERTPAENWLDTQFLPYGSPEEPLTSMFFGPKFLAHKLYQLCSPEDLALASSLVRPSSLFMEDLSKAKYFTDERFGSVKRVYIVCTEDKGIPEEFQRWQIDNIGVTEAIEIKGADHMAMLCEPQKLCASLLEIAHKYN [S115P] as the variant, how does the “denaturant midpoint” value read?
Answer: 1.9 M

Question: Which “denaturant midpoint” value does the source give for MKEGKHFVLVHGACHGGWSWYKLKPLLEAAGHKVTALDLAASGTDLRKIEELRTLYDYTLPLMELMESLSADEKVILVGHSLGGMNLGLAMEKYPQKIYAAVFLAAFMPDSVHNSSFVLEQYNERTPAENWLDTQFLPYGNPEEPLTSMFFGPKFLAHKLYQLCSPEDLALASSLVRPSSLFMEDLSKAKYFTDERFGSVKRVYIVCTEDKGIPEEFQRWQIDNIGVTEAIEIKGADHMAMLCEPQKLCASLLEIAHKYN [S141N] here?
Answer: 1.8 M

Question: For MKEGKHFVLVHGACHGGWSWYKLKPLLEAAGHKVTALDLAASGTDLRKIEELRTLYDYTLPLMELMESLSADEKVILVGHSLGGMNLGLAMEKYPQKIYAAVFLAAFMPDSVHNSSFVLEQYNERTPAENWLDTQFLPYGPPEEPLTSMFFGPKFLAHKLYQLCSPEDLALASSLVRPSSLFMEDLSKAKYFTDERFGSVKRVYIVCTEDKGIPEEFQRWQIDNIGVTEAIEIKGADHMAMLCEPQKLCASLLEIAHKYN [S141P], which “denaturant midpoint” value is on record?
Answer: 2.2 M

Question: Which “denaturant midpoint” value does the source give for MKEGKHFVLVHGACHGGWSWYKLKPLLEAAGHKVTALDLAASGTDLRKIEELRTLYDYTLPLMELMESLSADEKVILVGHSLGGMNLGLAMEKYPQKIYAAVFLAAFMPDSVHNSSFVLEQYNERTPAENWLDTQFLPYGSPEMPLTSMFFGPKFLAHKLYQLCSPEDLALASSLVRPSSLFMEDLSKAKYFTDERFGSVKRVYIVCTEDKGIPEEFQRWQIDNIGVTEAIEIKGADHMAMLCEPQKLCASLLEIAHKYN [E144M] here?
Answer: 2 M

Question: For MKEGKHFVLVHGACHGGWSWYKLKPLLEAAGHKVTALDLAASGTDLRKIEELRTLYDYTLPLMELMESLSADEKVILVGHSLGGMNLGLAMEKYPQKIYAAVFLAAFMPDSVHNSSFVLEQYNERTPAENWLDTQFLPYGSPEYPLTSMFFGPKFLAHKLYQLCSPEDLALASSLVRPSSLFMEDLSKAKYFTDERFGSVKRVYIVCTEDKGIPEEFQRWQIDNIGVTEAIEIKGADHMAMLCEPQKLCASLLEIAHKYN [E144Y], which “denaturant midpoint” value is on record?
Answer: 2.4 M

Question: With MKEGKHFVLVHGACHGGWSWYKLKPLLEAAGHKVTALDLAASGTDLRKIEELRTLYDYTLPLMELMESLSADEKVILVGHSLGGMNLGLAMEKYPQKIYAAVFLAAFMPDSVHNSSFVLEQYNERTPAENWLDTQFLPYGSPEEPLTSMFFGPKFLAHKLYHLCSPEDLALASSLVRPSSLFMEDLSKAKYFTDERFGSVKRVYIVCTEDKGIPEEFQRWQIDNIGVTEAIEIKGADHMAMLCEPQKLCASLLEIAHKYN [Q162H] as the variant, how does the “denaturant midpoint” value read?
Answer: 2.4 M

Question: With MKEGKHFVLVHGACHGGWSWYKLKPLLEAAGHKVTALDLAASGTDLRKIEELRTLYDYTLPLMELMESLSADEKVILVGHSLGGMNLGLAMEKYPQKIYAAVFLAAFMPDSVHNSSFVLEQYNERTPAENWLDTQFLPYGSPEEPLTSMFFGPKFLAHKLYQLSSPEDLALASSLVRPSSLFMEDLSKAKYFTDERFGSVKRVYIVCTEDKGIPEEFQRWQIDNIGVTEAIEIKGADHMAMLCEPQKLCASLLEIAHKYN [C164S] as the variant, how does the “denaturant midpoint” value read?
Answer: 0.9 M

Question: For MKEGKHFVLVHGACHGGWSWYKLKPLLEAAGHKVTALDLAASGTDLRKIEELRTLYDYTLPLMELMESLSADEKVILVGHSLGGMNLGLAMEKYPQKIYAAVFLAAFMPDSVHNSSFVLEQYNERTPAENWLDTQFLPYGSPEEPLTSMFFGPKFLAHKLYQLCPPEDLALASSLVRPSSLFMEDLSKAKYFTDERFGSVKRVYIVCTEDKGIPEEFQRWQIDNIGVTEAIEIKGADHMAMLCEPQKLCASLLEIAHKYN [S165P], which “denaturant midpoint” value is on record?
Answer: 2.5 M

Question: With MKEGKHFVLVHGACHGGWSWYKLKPLLEAAGHKVTALDLAASGTDLRKIEELRTLYDYTLPLMELMESLSADEKVILVGHSLGGMNLGLAMEKYPQKIYAAVFLAAFMPDSVHNSSFVLEQYNERTPAENWLDTQFLPYGSPEEPLTSMFFGPKFLAHKLYQLCSPEDLALVSSLVRPSSLFMEDLSKAKYFTDERFGSVKRVYIVCTEDKGIPEEFQRWQIDNIGVTEAIEIKGADHMAMLCEPQKLCASLLEIAHKYN [A172V] as the variant, how does the “denaturant midpoint” value read?
Answer: 2.3 M

Question: Which “denaturant midpoint” value does the source give for MKEGKHFVLVHGACHGGWSWYKLKPLLEAAGHKVTALDLAASGTDLRKIEELRTLYDYTLPLMELMESLSADEKVILVGHSLGGMNLGLAMEKYPQKIYAAVFLAAFMPDSVHNSSFVLEQYNERTPAENWLDTQFLPYGSPEEPLTSMFFGPKFLAHKLYQLCSPEDLALASSLVRPSSLFMEDLSRAKYFTDERFGSVKRVYIVCTEDKGIPEEFQRWQIDNIGVTEAIEIKGADHMAMLCEPQKLCASLLEIAHKYN [K188R] here?
Answer: 2.5 M

Question: For MKEGKHFVLVHGACHGGWSWYKLKPLLEAAGHKVTALDLAASGTDLRKIEELRTLYDYTLPLMELMESLSADEKVILVGHSLGGMNLGLAMEKYPQKIYAAVFLAAFMPDSVHNSSFVLEQYNERTPAENWLDTQFLPYGSPEEPLTSMFFGPKFLAHKLYQLCSPEDLALASSLVRPSSLFMEDLSKNKYFTDERFGSVKRVYIVCTEDKGIPEEFQRWQIDNIGVTEAIEIKGADHMAMLCEPQKLCASLLEIAHKYN [A189N], which “denaturant midpoint” value is on record?
Answer: 2.6 M
